From patent US20240400703A1 (Genmab, published 2024)
Where a chain is given by its changes, count along the chain named. In names and notes the source's numbering stands.

How the values were obtained:
[1] = molecular target: T1, human OX40 expressed on cells (human, UniProt P43489 29-277); assay: flow cytometry, activated human CD4+ T cells, donor 1
T1 construct: also called CD134; TNFRSF4
T1 sequence: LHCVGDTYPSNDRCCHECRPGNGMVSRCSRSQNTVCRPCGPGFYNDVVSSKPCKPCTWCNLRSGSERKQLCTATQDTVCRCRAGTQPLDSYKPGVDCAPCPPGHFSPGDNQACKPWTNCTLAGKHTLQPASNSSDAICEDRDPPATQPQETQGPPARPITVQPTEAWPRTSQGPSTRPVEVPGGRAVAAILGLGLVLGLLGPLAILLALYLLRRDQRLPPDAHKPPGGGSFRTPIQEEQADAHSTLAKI

[2] = molecular target: T2, human OX40 with mouse CRD4 (human with mouse CRD4, UniProt P43489 29-277); assay: flow cytometry, transfected ExpiCHO-S cells, MFI at 5 µg/mL as % of IgG1-CD134-A4453
T2 construct: on ExpiCHO-S cells; also called OX40-CRD4mm; Shuffle 4
T2 chain: T1 sequence with D109N, A122S, H125Q, L127R, Q128H, N132D, S134L, I137V
Description: The four shuffle constructs, as well as wild-type human and mouse OX40 were transiently expressed on ExpiCHO-S cells using the ExpiFectamine™ CHO Transfection Kit (ThermoFisher, cat. no. A29131), according to the manufacturer's protocol. […] Next, cells were washed twice in FACS buffer 1, were resuspended in a 30 μL solution of viability marker ToPro-3 (Invitrogen, cat. no. T3605, diluted 1:10,000) in FACS buffer 1 supplemented with 2 mM EDTA, and were analyzed on an iQue Screener Plus (Intellicyt Corporation, USA). Data were analyzed using FlowJo software and visualized using GraphPad Prism.

[3] = molecular target: T3, His-tagged human recombinant FcγRIIb (Sino Biological, cat. no. 10259-H27H-B) (human, UniProt P31994 43-217); assay: SPR, His-tagged FcγR captured on anti-His chip, antibody injected
T3 construct: also called FcγRII2b [sic]
T3 sequence (looked up): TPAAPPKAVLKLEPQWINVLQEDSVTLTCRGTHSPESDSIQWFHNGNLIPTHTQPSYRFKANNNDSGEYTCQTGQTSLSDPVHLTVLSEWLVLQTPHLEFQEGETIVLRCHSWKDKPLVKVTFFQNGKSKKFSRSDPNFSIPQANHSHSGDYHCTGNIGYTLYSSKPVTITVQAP
Description: Biacore Series S Sensor Chips CM5 (Cytiva, cat. no. 29104988) were covalently coated with anti-His antibody using amine-coupling and His capture kits (Cytiva, cat. no. BR100050 and cat. no. 29234602) according to the manufacturer's instructions. […] After three start-up cycles of HBS-EP+ buffer, antibody samples were injected for 12 cycles per sample to generate binding curves using antibody concentration ranges of 0 to 3,000 nM for FcγRIa and 0 to 10,000 nM for the other FcγRs.
Dissociation from the anti-His-coated surface was performed by regeneration of the surface using 10 mM Glycine-HCl pH 1.5 (Cytiva, cat. no. BR100354).

[4] = molecular target: T1, human OX40 expressed on cells; assay: flow cytometry, activated human CD8+ T cells, donor 1
Description: Healthy human donor PBMCs were purified essentially as described in Example 7. The cell concentration was adjusted to 2×10⁶ cells per mL (final concentration) in assay medium and plated in 6-well plates (Greiner, cat. no. 657160). PBMCs were stimulated with 0.3 μg/mL anti-CD3 ([…] Technologies, cat. no. 60011) and 0.5 μg/mL anti-CD28 antibodies (BioLegend, cat. no. 302934) and cultured for two days at 37° C., 5% CO₂. Next, the PBMCs were harvested, counted and brought to a concentration of 2×10⁶ cells per mL in FACS buffer 1 (DPBS with 2% heat-inactivated FBS and 2 mM ethylenediaminetetraacetic acid [EDTA]). […] After 60 min at RT, the cells were prepared for flow cytometric analyses. To this end, the cells were washed twice with 150 μL FACS buffer 1 and 30 μL/well cell-surface antibody mix (Table 9) in FACS buffer 1 containing antibody against human Fcγ antibody (Table 9) and fixable viability dye eFluor780 (1:1,500) was added. The staining procedures were carried out at 4° C. for 15-20 min protected from light. Stained cells were washed twice with 120-150 μL FACS buffer 1 (5 min, 460×g, RT) and resuspended in 60-100 μL FACS buffer 1 for direct flow cytometric analyses. Flow cytometric data were acquired on a FACSymphony A3 and analyzed with FlowJo software.

[5] = molecular target: T1, human OX40 expressed on cells; assay: flow cytometry, human T cells activated 72 h with anti-CD3/CD28 beads
[6] = molecular target: T1, human OX40 expressed on cells; assay: flow cytometry, loss of sOX40L (2 µg/mL) binding to activated human CD4+ T cells; competitor sOX40L; unit taken from the upper half of the table
Description: Stimulated PBMCs were pelleted, resuspended in FACS buffer 2 (DPBS with 2% heat-inactivated FBS [Sigma-Aldrich, cat. no. F7524] and 2 mM EDTA [Sigma-Aldrich, cat. no. 03690]), and seeded (100,000 cells/well) in round-bottom 96-well plates (VWR International GmbH, cat. no. 734-197). […] Next, cells were washed twice in FACS buffer, and incubated with 30 μL of the antibody panel described in Table 11 diluted in FACS buffer 2 containing 1:1,500 Fixable Viability Stain eFluor 780 at 4° C. for 20 min, protected from light. The cells were subsequently washed twice with 120-150 μL FACS buffer 2 and measured on a BD FACSCelesta flow cytometer using a BD High Throughput sampler and subsequent analysis was done using FlowJo software.

B1: IgG1-CD134-003-HC6LC2-P329R-E345R (antibody)
heavy: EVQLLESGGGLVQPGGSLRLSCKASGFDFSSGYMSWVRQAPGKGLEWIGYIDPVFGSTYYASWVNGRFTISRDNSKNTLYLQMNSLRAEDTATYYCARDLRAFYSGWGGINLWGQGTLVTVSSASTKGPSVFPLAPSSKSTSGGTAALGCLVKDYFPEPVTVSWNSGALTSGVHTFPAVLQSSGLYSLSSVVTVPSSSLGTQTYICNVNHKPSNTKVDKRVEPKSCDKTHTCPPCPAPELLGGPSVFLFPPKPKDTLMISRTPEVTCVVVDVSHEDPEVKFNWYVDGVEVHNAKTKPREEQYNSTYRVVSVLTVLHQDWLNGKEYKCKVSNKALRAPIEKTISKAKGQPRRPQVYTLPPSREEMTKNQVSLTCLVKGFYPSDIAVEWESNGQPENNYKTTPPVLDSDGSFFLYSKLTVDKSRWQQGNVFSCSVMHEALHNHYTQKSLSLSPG
light: AAVLTQSPSSLSASVGDRVTITCQSSQIVVNNNFLSWYQQKPGKAPKLLIYDASNLASGVPDRFSGSGSGTDFTFTISSLQPEDIATYYCLGGYDDDAENAFGGGTKVEIKRTVAAPSVFIFPPSDEQLKSGTASVVCLLNNFYPREAKVQWKVDNALQSGNSQESVTEQDSKDSTYSLSSTLTLSKADYEKHKVYACEVTHQGLSSPVTKSFNRGEC
notes: humanized; human IgG1 with P329R and E345R (Eu numbering), kappa; also called IgG1-CD134-003-HC6LC2-RR
EC50 [1]: 0.0273 µg/mL
binding result [2]: binds
binding result [3]: no binding (tested: about 5,000 nM)
EC50 [4]: 0.0329 µg/mL
EC50 (read off the curve) [5]: ~0.02 µg/mL
IC50 [6]: 0.579 nM
